Source: patent US20240010741A1 (MAB DISCOVERY, published 2024)

Key:
[1] = biological target: T1, Recombinant cyno-CD40 protein (Acro Biosystems) (cynomolgus monkey (Macaca fascicularis), UniProt G7PG38 21-193); assay: ELISA on coated recombinant cynomolgus monkey CD40
T1 construct: also called cynomolgus monkey-CD40 protein; recombinant cynomolgus monkey CD40 recombinant protein
Description: Binding of humanized anti-CD40 IgG1-LALA monoclonal antibodies to cynomolgus monkey-CD40 protein was tested in a biochemical ELISA. Recombinant cyno-CD40 protein (Acro Biosystems) was incubated in a 384-well Nunc™ MaxiSorp™ plate at a concentration of 0.5 μg/ml in PBS for one hour at room temperature. After washing three times with wash buffer (PBS, 0.1% Tween), plates were blocked with PBS, 2% BSA, 0.05% Tween for one hour at room temperature. Plates were washed again three time with wash buffer and antibodies at concentrations ranging from 500 to 0.03 ng/ml in PBS, 0.5% BSA, 0.05% Tween were incubated for one hour at room temperature. After 3 washes in wash buffer, wells were incubated with 12.5 μl of a 1:3000 dilution of anti-human peroxidase-linked, species specific F(ab) 2 Fragment from goat (AbD Serotec) in ELISA buffer for one hour at room temperature. Wells were washed six times with wash buffer and 15 μl/well TMB substrate solution (Invitrogen) were added. After 10 minutes at room temperature 15 μl Stop solution (1M HCl) were added per well and absorbance at 450 and 620 nm wavelength was measured using a Tecan M1000 microplate reader. Fitting curves and EC50 calculation were obtained by using Excel (Microsoft) and XLfit (IDBS).

[2] = biological target: soluble human CD40 monomeric protein (Acro Biosystems) (human, UniProt P25942 21-193); assay: SPR Biacore T200, antibody captured via anti-human Fc, soluble CD40 as analyte, 1:1 model
Description: (§1) a. The biochemical affinities of the antibodies of the invention was determined by surface plasmon resonance measurements. Antibodies were reversibly immobilized to a CM5 sensor chip surface via an anti-human Fc antibody. The kinetics of the interaction of immobilized antibodies with soluble human or cynomolgus monkey CD40 monomeric protein (Acro Biosystems) were analysed on a Biacore T200 SPR instrument. Kinetic data were determined using a Langmuir 1:1 binding model.
(§2) Biochemical affinities were measured by surface plasmon resonance on a Biacore T200 SPR instrument. Kinetic data were determined using a Langmuir 1:1 binding model.

cell-expressed CD40 [3] = biological target: T2, cell-expressed CD40 (UniProt P25942 21-277, limits assumed); assay: cell binding on HEK-Blue-CD40L cells, Alexa-Fluor-488 anti-human IgG, high content imaging
T2 construct: whole, on cells; also called CD40 on HEK-Blue-CD40L cells; cell surface CD40
Description: Antibodies were added to final concentrations ranging from 1.25 μg/ml to 0.01 ng/ml in 5 μl medium. After 24h cells were washed three times with 25 μl wash buffer (PBS, 0.05% Tween) before Alexa-Fluor-488-conjugated goat anti-human-IgG (Jackson Laboratories) was added at a concentration of 0.8 μg/ml in 20 μl medium. Four hours later, 5 μl Hoechst dye in medium was added to a final concentration of 51.1 µg/ml. Fluorescent cell binding signals were measured using a CellInsight automated high content imager (Thermo Fisher Scientific). Fitting curves and EC50 calculation were obtained by using Excel (Microsoft) and XLfit (IDBS).

[4] = biological target: T3, soluble cynomolgus monkey CD40 monomeric protein (Acro Biosystems) (cynomolgus monkey, UniProt G7PG38 21-193); assay: SPR (Biacore T200), antibody captured via anti-human Fc on CM5 chip, soluble cynomolgus CD40 as analyte, Langmuir 1:1 model
T3 construct: May be the same reagent as m11; also called cynomolgus monkey CD40 protein
Description: as §1, §2

recombinant CD40 protein = biological target: T4, recombinant CD40 protein (UniProt P25942 21-193, limits assumed); assay: CD40L competition ELISA: antibody (5 µg/ml) preincubated with recombinant CD40 (1.7 µg/ml), complex added to coated CD40L, detected with anti-human F(ab)2-peroxidase; a low signal means competition with CD40L
T4 construct: Construct not described; also called CD40 recombinant protein
Description: Competition of humanized anti-CD40 IgG1-LALA monoclonal antibodies with CD40L binding to CD40 was tested using an ELISA assay. CD40L was coated to the surface of a 384-well Nunc™ MaxiSorp™ plate in a volume of 25 μl PBS and at a concentration of 1 μg/ml for one hour at room temperature. Antibodies were pre-incubated at a concentration of 5 μg/ml with recombinant CD40 protein at a concentration of 1.7 μg/ml in a total volume of 40 μl for 1.5 hours at room temperature in ELISA buffer (PBS, 0.5% BSA, 0.05% Tween). The Nunc™ MaxiSorp™ plate was washed three times with wash buffer (PBS, 0.1% Tween) and blocked for one hour at room temperature with PBS, 2% BSA, 0.05% Tween. After three washes in wash buffer, 25 μl of the antibody-CD40 complex were added to the Nunc™ MaxiSorp™ plate wells and incubated for one hour at room temperature. After 3 washes in wash buffer, wells were incubated with 25 μl of a 1:2000 dilution of anti-human peroxidase-linked, species specific F(ab) 2 Fragment from goat (AbD Serotec) in ELISA buffer for one hour at room temperature. Wells were washed six times with wash buffer and 30 μl/well TMB substrate solution (Invitrogen) were added. After 10 minutes at room temperature, 30 μl Stop solution (1M HCl) was added per well and absorbance at 450 and 620 nm wavelength was measured using a Tecan M1000 microplate reader.

cell-expressed CD40 [5] = biological target: T2, cell-expressed CD40; assay: flow cytometry on HEK-Blue-CD40L cells preincubated with isotype control IgG1-LALA, CD40L-mouse IgG2a Fc titrated, DyLight 405 anti-mouse IgG [Detection of CD40L binding]
Description: (§3) a. Binding of anti CD40 antibodies of the invention to HEK-Blue-CD40L™ cells in the presence of CD40L was tested to verify whether the antibodies bind to the CD40L binding site of cell surface CD40. […] CD40L containing a mouse-IgG2a Fc-tag (AB Biosciences) was added at concentration ranging from 10000 to 9.8 ng/ml and cells were incubated for 60 minutes at 4° C. Anti-CD40 antibodies and CD40L bound to cell-expressed CD40 were detected using secondary DyLight 405-conjugated anti-mouse IgG and Alexa Fluor 488-conjugated anti-human IgG (Jackson Laboratories) and analyzed using FACSVerse instrument (BD).

cell-expressed CD40 [6] = biological target: T2, cell-expressed CD40; assay: flow cytometry on HEK-Blue-CD40L cells preincubated with CP870,893 IgG1-LALA at EC90, CD40L-mouse IgG2a Fc titrated, DyLight 405 anti-mouse IgG [Detection of CD40L binding]
Description: as §3

T2 sequence (P25942 21-277 limits assumed): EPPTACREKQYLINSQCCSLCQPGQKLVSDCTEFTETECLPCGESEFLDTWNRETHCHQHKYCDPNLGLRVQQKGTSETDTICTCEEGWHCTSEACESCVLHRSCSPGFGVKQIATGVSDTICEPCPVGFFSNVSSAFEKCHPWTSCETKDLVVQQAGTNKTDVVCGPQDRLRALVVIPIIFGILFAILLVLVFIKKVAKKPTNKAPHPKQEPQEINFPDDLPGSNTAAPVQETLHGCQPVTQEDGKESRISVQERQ
T4 sequence (P25942 21-193 limits assumed): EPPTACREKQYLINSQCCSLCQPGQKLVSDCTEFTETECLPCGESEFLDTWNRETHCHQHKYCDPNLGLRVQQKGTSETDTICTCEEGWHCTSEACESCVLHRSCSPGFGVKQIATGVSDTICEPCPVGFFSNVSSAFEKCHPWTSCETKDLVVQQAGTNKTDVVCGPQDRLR
Chain of soluble human CD40 monomeric protein (Acro Biosystems) (P25942 21-193 limits assumed): as above

Row | Binder | EC50 [1] | Kd [2] | EC50 (cell-expressed CD40 [3]) | Kd [4] | OD at 450 nm (recombinant CD40 protein) | EC50 (read off the curve) (cell-expressed CD40 [5]) | EC50 (read off the curve) (cell-expressed CD40 [6])
1 | MAB-16-0262 (antibody, V domains shown, Humanized IgG1-LALA (L234A, L235A in the human IgG1 Fc, EU numbering)) VH: EVQLEESGGGLVQPGGSLRLSCAASGFDFSTNAMCWVRQAPGKGLEWVACIAAGSSIITYYASWAKGRFTISKDTSKTTLYLQMNSLRAEDTAVYFCARGLSRFALWGQGTLVTVSS VL: DIVMTQSPSSLSASVGDRVTITCQASQSISSYLSWYQQKPGQAPKLLIYLTSTLASGVPSRFSGSGSGTDFTLTISSLQPEDFATYYCQGYYSSSSYVSNGFGQGTKVVIK | 11.9 ng/mL | 15.7 nM | 6.3 ng/mL | 10.3 nM | 0.11 OD |  | 
2 | CP-870,893 (antibody, V domains shown) VH: not shown VL: DIQMTQSPSSVSASVGDRVTITCRASQGIYSWLAWYQQKPGKAPNLLIYTASTLQSGVPSRFSGSGSGTDFTLTISSLQPEDFATYYCQQANIFPLTFGGGTKVEIKR | 8 ng/mL | 8.9 nM |  |  |  |  | 
3 | CD40L containing a mouse-IgG2a Fc-tag (AB Biosciences) (Fc fusion, UniProt P29965 113-261, looked up, not shown: mouse IgG2a Fc tag) MQKGDQNPQIAAHVISEASSKTTSVLQWAEKGYYTMSNNLVTLENGKQLTVKRQGLYYIYAQVTFCSNREASSQAPFIASLCLKSPGRFERILLRAANTHSSAKPCGQQSIHLGGVFELQPGASVFVNVTDPSQVSHGTGFTSFGLLKL |  |  |  |  |  | ~200 ng/mL | ~400 ng/mL
4 | MAB-16-0484 (antibody, V domains shown, humanized anti-CD40 IgG1-LALA antibody of the invention) VH: EVQLEESGGGLVQPGGSLRLSCAASGIDFSRYYYICWVRQAPGKGPEWVACFANGDGSTYYASWAKGRFTISKDTSKTTLYLQMNSLRAEDTATYFCARGADYSGGAAAFNLWGQGTLVTVSS VL: DIQMTQSPSSLSASVGDRVTITCQASQSISSRLAWYQQKPGQAPKLLIYRASTLASGVPSRFSGSGSGTDFTLTISSLQPEDFATYYCQDYYGSSTEYNAFGQGTKVVIK | 31.8 ng/mL |  | 21.9 ng/mL |  | 0.07 OD |  | 
5 | MAB-16-0267 (antibody, V domains shown, humanized anti-CD40 IgG1-LALA antibody of the invention) VH: EVQLEESGGDLVQPGASLRLSCAASGFDFNSNAMSWVRQAPGKGLEWVASIYAGGSGSTYYASWAKGRFTISKDTSKTTLYLQMNSLRAEDTATYFCARGITRLPLWGQGTLVTVSS VL: DIQMTQSPSSLSASVGDRVTITCQASQSISSYLAWYQQKPGQAPKLLIYDASKLASGVPSRFSGSGSGTDFTLTISSLQPEDFATYYCQGTYYGSTTISAFGQGTKVVIK | 7 ng/mL |  | 3.4 ng/mL |  | 0.1 OD |  | 
6 | MAB-16-0346 (antibody, V domains shown, humanized anti-CD40 IgG1-LALA antibody of the invention) VH: EVQLEESGGGLVQPGGSLRLSCAASGFDFSTNAVSWVRQAPGKGLEWVGSISAGSSGSTYYASWAKGRFTISKDTSKTTLYLQMNSLRAEDTATYFCARGYTYLTLWGQGTLVTVSS VL: DIVMTQSPSSLSASVGDRVTITCQASHSISSTYLSWYQQKPGQAPKLLIYRASTLASGVPSRFSGSGSGTDFTLTISSLQPEDFATYYCQYTDYGSSYVSTFGQGTKVVIK | 8.2 ng/mL |  | 49.5 ng/mL |  | 0.09 OD |  | 

The remaining lines, values ahead:

Row | EC50 [1] | Kd [2] | EC50 (cell-expressed CD40 [3]) | Kd [4] | OD at 450 nm (recombinant CD40 protein) | EC50 (read off the curve) (cell-expressed CD40 [5]) | EC50 (read off the curve) (cell-expressed CD40 [6]) | Binder
7 | 10.4 ng/mL | 1.2 nM | 8.9 ng/mL | 0.8 nM | 0.13 OD |  |  | MAB-16-0451 (antibody, V domains shown, Humanized IgG1-LALA (L234A, L235A in the human IgG1 Fc, EU numbering)) VH: EVQLEESGGGLVQPGGSLRLSCAASGFDFSSNTMCWVRQAPGKGLEWVACIYAGSSGSTYYASWAKGRFTISKDISKTTLYLQMNSLRAEDTATYFCARGLSRFSLWGQGTLVTVSS VL: DIVMTQSPSSLSASVGDRVTITCQASQSISNYLAWYQQKPGQAPKLLIYDASKLASGVPSRFSGSGSGTDFTLTISSLQPEDFATYYCQGGDYYGSSYVVAFGGGTKVVIK
8 |  |  | 5.8 ng/mL |  | 0.08 OD |  |  | MAB-16-0400 (antibody, V domains shown, humanized anti-CD40 IgG1-LALA antibody of the invention) VH: EVQLEESGGGLVQPGGSLRLSCAASGIDFSRYFYMCWVRQAPGKGLEWVACIGPGVSGDTYYASWAKGRFTISGDTSKTTLYLQMNSLRAEDTATYFCARGVDYTYGDAGAAFNLWGQGTLVTVSS VL: DIVMTQSPSSLSASVGDRVTITCQASQSISSYLAWYQQKPGQAPKLLIYRASILASGVPSRFSGSGSGTDFTLTISSLQPEDFATYYCQTYYSSRTYSYGSPNAFGQGTKVVIK
9 |  |  | 3.2 ng/mL |  | 0.01 OD |  |  | MAB-16-0489 (antibody, V domains shown, humanized anti-CD40 IgG1-LALA antibody of the invention) VH: EVQLEESGGGLVQPGASLRLSCAASGIDFSRYFYVCWVRQAPGKGLEWVGCFANHDDSIYYAGWMNGRFTISKDTSKTTLYLQMNSLRAEDTATYFCARGVDYTVGYGGAAFNLWGQGTLVTVSS VL: DIVMTQSPSSLSASVGDRVTITCQASQSIGSYLSWYQQKPGQAPKLLIYRATTLASGVPSRFSGSGSGTDFTLTISSLQPEDFATYYCQSYYRDSSSSAFGQGTKVVIK
10 | 11.1 ng/mL |  | 6.6 ng/mL |  | 0.07 OD |  |  | MAB-16-0406 (antibody, V domains shown, humanized anti-CD40 IgG1-LALA antibody of the invention) VH: EVQLEESGGGLVQPGGSLRLSCAASGIDFSRYYYMCWVRQAPGKGPEWVACYSNGDGSTYYASWAKGRFTISKDTSKTTLYLQMNSLRAEDTATYFCARGADYSAGAAAFNLWGQGTLVTVSS VL: DIQMTQSPSSLSASVGDRVTITCQASESIGNALVWYQQKPGQAPKLLIYRASILASGVPSRFSGSGSGTDFTLTISSLQPEDFATYYCQDYYGSSTEYNTFGQGTKVVIK
11 | 8 ng/mL | 2.6 nM | 3 ng/mL | 2.2 nM | 0.09 OD |  |  | MAB-16-0464 (antibody, V domains shown, Humanized IgG1-LALA (L234A, L235A in the human IgG1 Fc, EU numbering)) VH: EVQLEESGGGLVQPGGSLRLSCAASGFDFSSNAMSWVRQAPGKGLEWVGTIYAGSNGNTDYASWAKGRFTISKDTSKTTLYLQMNSLRAEDTATYFCARGASYFTLWGQGTLVTVSS VL: DIVMTQSPSSLSASVGDRVTITCQASESVVSNNRLAWYQQKPGQAPKLLIYLASTLPSGVPSRFSGSGSGTDFTLTISSLQPEDFATYYCAGYKSSSTDGTAFGQGTKVVIK
